The text below walks through data of publication PMC10397247.

One assay has as its target T1, P10bHq.
T1 chain: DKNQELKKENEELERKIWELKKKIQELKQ
As to the kind of experiment: two-hybrid library CCNG1.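 Also: natural log of median RNA to DNA barcode read ratio; higher means stronger binding.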

The target in a further assay is T2, P11bHq.
T2 chain: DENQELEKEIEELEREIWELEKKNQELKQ
The assay can be described thus: two-hybrid library CCNG1.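 Also: natural log of median RNA to DNA barcode read ratio; higher means stronger binding.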

A further assay concerns the target T3, P12bHq.
T3 chain: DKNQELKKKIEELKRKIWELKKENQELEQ
As to the kind of experiment: two-hybrid library CCNG1.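 Also: natural log of median RNA to DNA barcode read ratio; higher means stronger binding.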

For the next assay, the target named is T4, P1bHq.
T4 chain: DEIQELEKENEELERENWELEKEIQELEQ
The assay can be described thus: two-hybrid library CCNG1.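 Also: natural log of median RNA to DNA barcode read ratio; higher means stronger binding.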

Another assay addresses T5, P3bHq.
T5 chain: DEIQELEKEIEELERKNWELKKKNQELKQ
As to the kind of experiment: two-hybrid library CCNG1.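 Also: natural log of median RNA to DNA barcode read ratio; higher means stronger binding.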

For a further assay, the target named is T6, P4bHq.
T6 chain: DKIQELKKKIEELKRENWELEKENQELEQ
As to the kind of experiment: two-hybrid library CCNG1.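 Also: natural log of median RNA to DNA barcode read ratio; higher means stronger binding.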

Another assay concerns the target T7, P5bHq.
T7 chain: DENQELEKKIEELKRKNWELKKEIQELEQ
As to the kind of experiment: two-hybrid library CCNG1.

For the next assay, the target named is T8, P6bHq.
T8 chain: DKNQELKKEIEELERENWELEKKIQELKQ
The assay can be described thus: two-hybrid library CCNG1.

A further assay has as its target T9, P7bHq.
T9 chain: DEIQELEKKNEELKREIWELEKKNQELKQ
As to the kind of experiment: two-hybrid library CCNG1.

Another assay deals with T10, P8bHq.
T10 chain: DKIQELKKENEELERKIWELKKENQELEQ
The assay can be described thus: two-hybrid library CCNG1.

The next assay deals with T11, P9bHq.
T11 chain: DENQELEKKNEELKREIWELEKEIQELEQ
As to the kind of experiment: two-hybrid library CCNG1.

The target in another assay is T12, Core_IINI-es_KKEK.
T12 chain: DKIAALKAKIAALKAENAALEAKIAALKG
The assay can be described thus: two-hybrid library CCmax. To be noted: mean of both orientations.

In another assay the target is T13, 4H264-bN.
T13 chain: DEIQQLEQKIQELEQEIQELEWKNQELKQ
The assay can be described thus: two-hybrid library CCNG1.

A further assay concerns the target T14, 4H2760-bN.
T14 chain: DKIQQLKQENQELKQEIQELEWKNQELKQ
As to the kind of experiment: two-hybrid library CCNG1.

For the next assay, the target named is T15, 4H2859-bN.
T15 chain: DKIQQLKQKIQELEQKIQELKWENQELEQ
As to the kind of experiment: two-hybrid library CCNG1.

The next assay addresses T16, 4H2931-bN.
T16 chain: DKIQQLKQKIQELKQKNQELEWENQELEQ
As to the kind of experiment: two-hybrid library CCNG1.

For the next assay, the target named is T17, 4H3041-bN.
T17 chain: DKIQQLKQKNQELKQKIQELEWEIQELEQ
The assay can be described thus: two-hybrid library CCNG1.

In the next assay the target is T18, 4H3297-bN.
T18 chain: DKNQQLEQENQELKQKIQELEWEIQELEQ
The assay can be described thus: two-hybrid library CCNG1.

Another assay concerns the target T19, 4H3364-bN.
T19 chain: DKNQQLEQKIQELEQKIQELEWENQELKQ
As to the kind of experiment: two-hybrid library CCNG1.

The next assay addresses T20, 4H3381-bN.
T20 chain: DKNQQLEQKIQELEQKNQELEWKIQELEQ
The assay can be described thus: two-hybrid library CCNG1.

For another assay, the target named is T21, 4H349-bN.
T21 chain: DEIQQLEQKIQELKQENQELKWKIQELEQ
The assay can be described thus: two-hybrid library CCNG1.

In a further assay the target is T22, 4H56-bN.
T22 chain: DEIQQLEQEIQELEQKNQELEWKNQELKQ
The assay can be described thus: two-hybrid library CCNG1.

A further assay has as its target T23, 4H570-bA.
T23 chain: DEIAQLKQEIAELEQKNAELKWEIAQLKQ
The assay can be described thus: two-hybrid library CCNG1.

Another assay addresses T24, 4H730-bN.
T24 chain: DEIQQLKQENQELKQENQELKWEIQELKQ
As to the kind of experiment: two-hybrid library CCNG1.

The target in another assay is T25, 4H796-bN.
T25 chain: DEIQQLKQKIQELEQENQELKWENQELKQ
The assay can be described thus: two-hybrid library CCNG1.

Another assay concerns the target T26, 4H932-bN.
T26 chain: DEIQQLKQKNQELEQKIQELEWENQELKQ
The assay can be described thus: two-hybrid library CCNG1.

The next assay concerns the target T27, 4H949-bN.
T27 chain: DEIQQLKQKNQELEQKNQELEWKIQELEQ
The assay can be described thus: two-hybrid library CCNG1.

The target in a further assay is T28, P10A-bN.
T28 chain: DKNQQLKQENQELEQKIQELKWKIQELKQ
The assay can be described thus: two-hybrid library CCNG1.

In a further assay the target is T29, 4H1347-bH.
T29 chain: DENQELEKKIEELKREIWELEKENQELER
The assay can be described thus: two-hybrid library CCNG1.

The target of the next assay is T30, 4H145-bH.
T30 chain: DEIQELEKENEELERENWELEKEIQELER
The assay can be described thus: two-hybrid library CCNG1.

The next assay concerns the target T31, 4H2619-bH.
T31 chain: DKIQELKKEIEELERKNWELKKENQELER
The assay can be described thus: two-hybrid library CCNG1.

For another assay, the target named is T32, 4H2691-bH.
T32 chain: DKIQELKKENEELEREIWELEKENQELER
As to the kind of experiment: two-hybrid library CCNG1.

Another assay addresses T33, 4H3070-bH.
T33 chain: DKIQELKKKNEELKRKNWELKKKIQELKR
As to the kind of experiment: two-hybrid library CCNG1.

The target in a further assay is T34, 4H342-bH.
T34 chain: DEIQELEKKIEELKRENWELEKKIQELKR
The assay can be described thus: two-hybrid library CCNG1.

The target in a further assay is T35, 4H3632-bH.
T35 chain: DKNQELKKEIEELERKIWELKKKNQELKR
As to the kind of experiment: two-hybrid library CCNG1.

In the next assay the target is T36, 4H496-bH.
T36 chain: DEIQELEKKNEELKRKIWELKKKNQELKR
The assay can be described thus: two-hybrid library CCNG1.

For a further assay, the target named is T37, Core_NIIN-es_KKEE.
T37 chain: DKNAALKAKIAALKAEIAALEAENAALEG
As to the kind of experiment: two-hybrid library CCmax. To be noted: mean of both orientations.

B1: P10bHq (peptide)
chain: DKNQELKKENEELERKIWELKKKIQELKQ
In the case of B1, the interaction score was -0.704 with P10bHq; -1.18 in the assay with P11bHq; 1.08 with P12bHq; 1.43 with P1bHq; -0.901 with P3bHq; 0.266 with P4bHq. In addition, the interaction score is -0.0841 with P5bHq; 1.3 with P6bHq; 1.54 with P7bHq; -0.382 with P8bHq; 1 with P9bHq.

B2: Core_IINI-es_EEKE (peptide)
chain: DEIAALEAEIAALEAKNAALKAEIAALEG
Molecule B2 returned an interaction score with Core_IINI-es_KKEK of 2.32.

B3: 4H264-bN (peptide)
chain: DEIQQLEQKIQELEQEIQELEWKNQELKQ
Regarding B3, the interaction score is -0.816 with 4H264-bN; -0.23 in the assay with 4H2760-bN; 1.92 in the assay with 4H2859-bN; 1.31 in the assay with 4H2931-bN; 1.54 with 4H3041-bN; 0.44 in the assay with 4H3297-bN. Besides, the interaction score with 4H3364-bN is 0.517; with 4H3381-bN, 0.605; with 4H349-bN, 0.605; with 4H56-bN, 0.479; with 4H570-bA, -2.9; in the assay with 4H730-bN, 0.137. Also, the interaction score was -0.162 with 4H796-bN, -0.218 in the assay with 4H932-bN, -0.338 in the assay with 4H949-bN and -2.47 with P10A-bN.

B4: 4H1347-bH (peptide)
chain: DENQELEKKIEELKREIWELEKENQELER
For B4, the interaction score with 4H1347-bH is 0.364; in the assay with 4H145-bH it was -0.368; with 4H2619-bH, -0.987; with 4H2691-bH it was -0.275; in the assay with 4H3070-bH, -0.395; with 4H342-bH, -0.391. For the same molecule, the interaction score was 1.71 with 4H3632-bH and -0.415 in the assay with 4H496-bH.

B5: Core_NIIN-es_EEKK (peptide)
chain: DENAALEAEIAALEAKIAALKAKNAALKG
With B5, the interaction score in the assay with Core_NIIN-es_KKEE came out at 2.03.
